Data from patent publication US20110217317A1 (published 2011).

T1: Rhesus D antigen (human, UniProt Q02161 2-417)
T1 construct: whole, on cells; Presented on RhD-positive erythrocytes in all assays; also called RhD; RhD antigen
T1 sequence (looked up): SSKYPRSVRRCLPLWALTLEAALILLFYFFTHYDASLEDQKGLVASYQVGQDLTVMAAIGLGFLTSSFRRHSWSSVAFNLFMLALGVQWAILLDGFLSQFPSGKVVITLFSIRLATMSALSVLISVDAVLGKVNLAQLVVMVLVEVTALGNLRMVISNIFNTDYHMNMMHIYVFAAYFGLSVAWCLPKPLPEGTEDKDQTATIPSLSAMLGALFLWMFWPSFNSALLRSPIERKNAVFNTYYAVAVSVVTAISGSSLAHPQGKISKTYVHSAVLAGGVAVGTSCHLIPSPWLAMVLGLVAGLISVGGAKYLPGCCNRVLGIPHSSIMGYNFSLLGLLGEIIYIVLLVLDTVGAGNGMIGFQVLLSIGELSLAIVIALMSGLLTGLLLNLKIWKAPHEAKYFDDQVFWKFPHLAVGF

B1: RhD161.119E09 (Fab, V domains shown)
VH: EVQLVESGGGVVQSGRSLRLSCAASGFTFSNNGMHWVRQAPGKGLEWVAFIWYDGSNKYYADSVKGRFTISRDNSKNTLYLQMDGLRAEDSAVYYCAREEIAARLYSRYHYAMDVWGQGTMVTVSS
VL: DIQMTQSPSFLSASVGDRVTITCRASQGIRRYLAWFQQKPGKAPKLLIFSASTLQSGVPSRFSGSGSGTEFTLTISSLQPEDFATYYCQQLSSYPPYTFGQGTKLEIKR
notes: Tested as Fab (periplasmic extract)
B2: RhD160.119C07 (Fab, V domains shown)
VH: EVQLVESGGGVVQPGRSLRLSCAASGFTFSNYGMHWVRQAPGKGLEWVAVIWYDGSNRFYADSVKGRFTISRDNSKNTLYLQMNNLRAEDTALYSCAREITTTVVVRRHYLMDIWGQGTTVTVSS
VL: DIQLTQSPSSLSASVGDRVSITCRASQGISNSLAWYQQKPGKVPKLLIYAASTLQSGVPSRFSGGGSGTDFTLTISSLQPEDVATYYCQKYNSAPFAFGPGTKVDIKR
notes: as for B1
B3: RhD296.126A03 (Fab, V domains shown)
VH: EVQLVESGGGVVQPGRSLRLSCEASGFTFSNYGMHWFRQAPGKGLEWVAIIWYDGSNKHYADSVKGRFTISRDNSKNTLYLQMNSLRAEDTAVYFCAREIASRGYSRYLYYFDSWGQGTLVTVSS
VL: DIQMTQSPSSLSASVGDRVTITCRASQSISSYLNWYQQKPGKAPKLLIFAASSLQSGVPSRFSGSGSGTDFSLTISSLQPEDFATYYCQQSYSSLALTFGGGTKVEIKR
notes: as for B1
B4: RhD301.160A04 (Fab, V domains shown)
VH: QVQLVESGGGVVQPGRSLRLSCAASGFTFSSYGMHWVRQAPGKGLEWVAVIWFDGGNKYYADSAKGRFTISRDNSKNTLYLQMNSLRAEDTAVYYCARDASVLSGLVTRRLVYYGMDVWGQGTTVTVSS
VL: DVVMTQSPLSLPVTPGEPASISCRSSQSLLHRNGYNYLNWYLQKPGQSPQLLIYLGSNRASGVPDRFSGSGSGTDFTLKISGVEAEDVAFYYCMQGLRTPYTFGQGTKLEIKR
notes: as for B1
B5: RhD305.181E06 (Fab, V domains shown)
VH: QVQLVESGGGVVQPGRSLRLSCAASGFTFSSYGMHWVRQAPGKGLEWVAGIWYDGSNKYYADSVKGRFTISRDNSRNTMYLQMNSLRAEDTAVYYCAREQGGYSSSWYRRYYYYNMDLWGQGTTVTVSS
VL: EIVLTQSPGSLSLSPGERATLSCRASQSVSSSYLAWYQQKPGQAPRLLIYGPSSRATGIPDRFSGSGSGTDFTLTISRLEPEDFAVYYCQHFGNSRGTFGQGTKVEIRR
notes: as for B1
B6: RhD299.127A12 (Fab, V domains shown)
VH: QVQLVESGGGVVQPGRSLRLSCAASGFTFSNFGMHWVRQAPGKGLEWVAVIWYDGSNKDYADSVKGRFTISRDNSKRTLYLQMNSLRAEDTAVYYCARELARGRLRDLDYWGQGTLVTVSS
VL: QAVVTQEPSLTVSPGGTVTLTCASSTGAVTTGYYPNWFQQKPGQAPRALIYSTSKKHSWTPARFSGSLLGGKAALTLSGVQPEDEAEYYCLLFYGGAQLGVFGGGTKLTVLG
notes: as for B1
B7: RhD319.187A11 (Fab, V domains shown)
VH: QVQLVESGGGVVQPGRSLRLSCAASGFTFSTYGMHWVRQAPGKGLEWVAVIWYDGSNKNYADSVKGRFTISRDNSKNTLYLQMNSLRAEDTAVYYCARDLQGYRSSWYRMYYYYGMDVWGQGTTVTVSS
VL: QTVVTQEPSLTVSPGGTVTLTCASSTGAVTSGYYPNWFQQKPGQAPRALIYSTSNKHSWTPARFSGSLLGGKAALTLSGVQPEDEAEYYCLLYYGGAQRWVFGGGTILTVLG
notes: as for B1
B8: RhD306.223E11 (Fab, V domains shown)
VH: QVQLVESGGGVVQPGRSLRLSCAASGFTFSSYGMHWVRQAPGKGLEWVAVIWYDGSNKYYADSVKGRFTISRDNSKNTLYLQMNTLRDDDTAVYYCAREGTLYSSSWYRRYYYYGMDAWGQGTTVTVSS
VL: EIVLTQSPGTLSLSPGERVTLSCRPSRYIASDYLAWYQLRPGQAPKLLIYGASSRATGIPDRFSGVGSPTDFTLTISRLEPEDFAMYYCHYSGGSPPYPFGQGTRLDIKR
notes: as for B1
B9: RhD321.187G08 (Fab, V domains shown)
VH: EVQLVESGGGLVKPGGSLRLSCAASGFTFRSYSMNWVRQAPGKGLEWVSSIGSSSIYTYSADSVKGRFTISRDNAKNSLYLQMNSLRAEDTAVYYCARGEPLNYDYIWGRSRLTIHWGQGTLVTVSS
VL: LNFMLTQPHSVSESPGKTVTISCTRSSGSIASNYMQWYQQRPGSSPTTVIYEDNRRPSGVPDRFSGSIDSSSNSASLTISGLKTEDEADYYCQSYDSNNWVFGGGTKLTVLG
notes: as for B1
B10: RhD317.144A02 (Fab, V domains shown)
VH: QVQLQESGPGLVKPSGTLSLTCAVSGGSIRGSNWWSWVRQPPGKGLEWIGEIHHGGSTNYNPSLKSRVTISVDKSKNRFSLKLSSVTAADTAVYYCARGTSYYDSSGYSFRGLVAFDIWGQGTMVTVSS
VL: EIVLTQSPGTLSLSPGERATLSCRASQSVSSAFLAWYQQKPGQAPRLLIYGASSRATGIPDRFSGSGSGTDFTLTISRLEPEDFAVYYCQQYGSFSITFGQGTRLEIKR
notes: as for B1
B11: RhD307.230E11 (Fab, V domains shown)
VH: QVQLVETGGGVVQPGRSLRLSCAASGFTFSSYGMHWVRQAPGKGLEWVAGIWYDGSNKYYGDSVKGRFTISRDNSRNTLYLHMNSLRADDTAVYYCAREHGGSRSGWYTLRLAYYFDYWGQGTLVTVSS
VL: DIQLTQSPSSLSASVGDRVTITCRASQYINVYLNWYQHKAGRAPKLLIYAASNLQSGVPPRFIGSGSGTDFTLTISSLQSEDFATYYCLQSFTVPRTFGPGTKVDVKR
notes: as for B1
B12: RhD302.160B10 (Fab, V domains shown)
VH: QVQLVESGGGVVQPGRSLRLSCAASGFTFSSYGMHWVRQAPGKGLEWVAFISYDGSNKYYADSVKGRFTISRDNSKNTLSLQMNSLRAEDTAVYYCAKEHGYYRSSWYRNYYYYGMDVWGQGTTVTVSS
VL: DIQLTQSPSSLSASVGDRVTITCRASQSISSYLNWYKQRPGKAPKLLIYAASTLQSGVPSRFSGSGSGTDFALTISSLQAEDFATYYCQQTYSTLWTFGQGTKVEITR
notes: as for B1
B13: RhD303.160B11 (Fab, V domains shown)
VH: QVQLVESGGGVVQPERSLRLSCAASGFTFSSYGMHWVRQAPGKGLEWVAVISYDGSNKYYADSVKGRFTISRDNSKNTLYLQMNSLRAEDTAVYYCAKDEVGYSSSWYRRYYYYAMDVWGQGTTVTVSS
VL: EIVLTQSPGTLSLSPGETATLSCRASQSVSDRDLAWYQQKSGQSPRLLMYGGSTRAPGIPVRFSGSGSGTEFTLTISSLQSEDFAIYYCQHYHDWPPTFGQGTRLEIKR
notes: as for B1
B14: RhD304.164B06 (Fab, V domains shown)
VH: QVQLVQSGGGVVQPGRSLRLSCAASGFTFSSYGMHWVRQAPGKGLEWVAVIWYDGSNKYYADSVKGRFTISRDNSKNTLYLQMNSLRAEDTAVYYCARETVVVAAKIRNHYYYAMDVWGQGTTVTVSS
VL: DIQMTQSPSSLSASLGGTVTLTCRSSQFISRYLNWYQQHPGKVPRLLISGASRLQRGVPSRFTGGGSGTDFTLTIKNVQPDDIATYFCQHSYRSGRAFGQGTTVEVKR
notes: as for B1
B15: RhD300.134H09 (Fab, V domains shown)
VH: QVQLVESGGGVVQPGRSLRLSCAASGFTFSSYGMHWVRQAPGKGLEWVAVIWYDGSNKYYADSVKGRFTISRDNSKNTLYLQMNSLRAEDTAVYYCAREFYTRSGLWSQGYSYYMDVWGKGTTVTVSS
VL: QTVVTQEPSFSVSPGGTVTLTCGLSSGSVSARYYPSWYQQTPGQPPRTLIHSTNTRSSGVPDRFSGSILGNKAALTITGAQADDESDYYCVLYMGSGPWVFGGGTKLTVLG
notes: as for B1

Each binder was assayed against T1, Rhesus D antigen (assay: agglutination assay, Fab on RhD(+)/RhD(-) RBC mix).
Experimental: After each round of panning single colonies were picked for analysis of their binding properties to red blood cells in agglutination assays. Briefly, single colonies were inoculated into 2×YT/100 μg/mL carbenicillin/1% glucose and shaken overnight at 37° C. The next day, DeepWell plates were inoculated using 900 μl 2×YT/100 μg/mL carbenicillin/0.1% glucose and 10 μl overnight culture. The plates were shaken for two hours at 37° C., before Fab induction was performed with addition of 300 μl 2×YT/100 μg/mL carbenicillin/0.25 mM IPTG per well. The plate was shaken overnight at 30° C. The following day, the bacteria were pelleted by centrifugation (3200×g, 4° C., 10 minutes), and re-suspended in 100 μl of 0.8 M NaCl, 0.2×PBS, 8 mM EDTA, and incubated for 15 minutes on ice in order to perform a periplasmic extraction of the Fab fragments. The plate was transferred to −20° C. and finally the suspension was thawed and centrifugation was performed for 10 minutes at 4° C. and 3200×g. The periplasmic extract was used in ELISA assays for analysis of Fab content and in agglutination assays to evaluate the binding potential of the individual Fab fragments. The agglutination assay was performed as follows: RhD(−) and RhD(+) RBC were mixed in a 1:1 ratio, and washed 3 times in PBS. After the final wash, the cell mix was re-suspended in 1% BSA in PBS at a density of 1% cells, 50 μl was added to each well of a 96-plate. Periplasmic extracts were added to the wells. As a positive control Rhesogamma P immunoglobulin (Aventis) was used according to the manufacturer's instructions. The plates were incubated for one hour at room temperature with gentle shaking. The cells were washed three times with PBS, before the secondary antibody was added (goat anti-human Fab/FITC conjugate, Sigma F5512) in a 1:100 dilution. The plates were left for agglutination for one hour at room temperature without shaking. Fab fragments positive in the agglutination assay was determined by visual inspection, and recorded by taking a picture. Quantization of the binding activity of the Fab fragments was performed by FACS analysis of the agglutination samples.

Binding result, binds:
B1
B2
B3

These binders were tested against T1, Rhesus D antigen (assay: Fab screening on red blood cells (agglutination/FACS)).

Binding result, binds:
B4
B5
B6
B7
B8
B9
B10
B11
B12
B13
B14
B15
